In paper PMC6182147 one finds Kd data, which are given here for 1 substance.

Assay [1] has as its target Clp-GST (L. enzymogenes Clp purified as GST-fusion) (Lysobacter enzymogenes) (UniProt Q7WZ07). Kind of assay: MST.
Assay [2] shares this target. Kind of assay: MST. The source holds these as a separate data set.

pKd: −log10 of the molar value. Read-outs that look alike come from different tables or passages of the source.

In the case of “LchP-PGE-MBP (cytoplasmic fragment of LchP, PAS+GGDEF+EAL domains, fused to maltose binding protein) (domain or fragment)”, the negative-log Kd (pKd) is 8.85 in assay [1] and 8.14 in assay [2].
